Experimental findings from PMC6123721 (2018) are described below.

The chains are these.
B1: 6D8 single-chain Fv (scFv) (scFv, V domains shown)
VH: QVQLQQSGDELVKPGASVKLSCTVSGFNIKDDFIHWMKQRPEQGLEWIGRIDPANGYTKYAPKFQDKATMTADTSSNTAYLQLSSLASEDAAVYYCATYGVAYWGQGTLVTVSA
VL: DIVLTQSPASLAVSLGQRATISCKASQSVDHDGDSYMNWFQQKPGQSPKLLIYAASNLESGIPARFSGSGSGTDFTLNIHPVEEEDAATYYCQQTNEDPYTFGGGTKLEIK

Test in all cases: ITC
For experiment [1], the target named is B1.
For another experiment, the target named is FC27-MSP2.
In the next experiment the target is 3D7-MSP2.

A word on the Kd: it is the equilibrium constant for the complex coming apart. For NAYNMSIRR [MSP2 14-22 peptide (minimal 6D8 epitope of merozoite surface protein 2)], the dissociation constant (Kd) in experiment [1] came out at 6 nM.

For B1, the values for the Kd with FC27-MSP2 and with 3D7-MSP2 were 13 nM and 61 nM, respectively.

In the case of NAYNMSIRRSMANEGSNTNSV [FC27 MSP2 14-34 peptide (C-terminally extended epitope, FC27 allele)], the Kd in experiment [1] was found to be 16 nM.

In experiment [1], NAYNMSIRRSMAESKPSTGAG [3D7 MSP2 14-34 peptide (C-terminally extended epitope, 3D7 allele)] registered a Kd of 64 nM.
